Laboratory results: article PMC5391581

Columns and labels:
[1] = target: SV40 LT 131-627 cL557A (Simian Virus 40); assay: SEC; Superdex 200 10/300 GL; 250 μg LT (0.8 μg/μL) incubated with 4 mM ATP and 1 mM MgCl2; 25 mM Tris pH 8.0, 250 mM NaCl, 0.5 mM TCEP; percent hexamer from peak areas; monomer to hexamer
[2] = target: SV40 LT 131-627 cS430T (Simian Virus 40); assay: SEC; Superdex 200 10/300 GL; 250 μg LT (0.8 μg/μL) incubated with 4 mM UTP and 1 mM MgCl2; 25 mM Tris pH 8.0, 250 mM NaCl, 0.5 mM TCEP; percent hexamer from peak areas; monomer to hexamer
[3] = target: SV40 LT 131-627 cS430T (Simian Virus 40); assay: SEC; Superdex 200 10/300 GL; 250 μg LT (0.8 μg/μL) incubated with 4 mM ATP and 1 mM MgCl2; 25 mM Tris pH 8.0, 250 mM NaCl, 0.5 mM TCEP; percent hexamer from peak areas; monomer to hexamer
[4] = target: SV40 LT 131-627 cW393A (Simian Virus 40); assay: as above
[5] = target: SV40 LT 131-627 tK419A (Simian Virus 40); assay: SEC; Superdex 200 10/300 GL; 250 μg LT (0.8 μg/μL) incubated with 4 mM TTP and 1 mM MgCl2; 25 mM Tris pH 8.0, 250 mM NaCl, 0.5 mM TCEP; percent hexamer from peak areas; monomer to hexamer
[6] = target: SV40 LT 131-627 tK419A (Simian Virus 40); assay: SEC; Superdex 200 10/300 GL; 250 μg LT (0.8 μg/μL) incubated with 4 mM ATP and 1 mM MgCl2; 25 mM Tris pH 8.0, 250 mM NaCl, 0.5 mM TCEP; percent hexamer from peak areas; monomer to hexamer
[7] = target: SV40 Large Tumor Antigen (LT) 131-627, wild type (Simian Virus 40); assay: SEC; Superdex 200 10/300 GL; 250 μg LT (0.8 μg/μL) incubated with 4 mM UTP and 1 mM MgCl2; 25 mM Tris pH 8.0, 250 mM NaCl, 0.5 mM TCEP; percent hexamer from peak areas; monomer to hexamer
[8] = target: SV40 Large Tumor Antigen (LT) 131-627, wild type (Simian Virus 40); assay: SEC; Superdex 200 10/300 GL; 250 μg LT (0.8 μg/μL) incubated with 4 mM ATP and 1 mM MgCl2; 25 mM Tris pH 8.0, 250 mM NaCl, 0.5 mM TCEP; percent hexamer from peak areas; monomer to hexamer

SV40 LT 131-627 cL557A (domain or fragment)
percent hexamer formed (ATP + Mg++) [1]: 99.9%
stoichiometry N [1]: 6

SV40 LT 131-627 cS430T (domain or fragment)
percent hexamer formed (UTP + Mg++) [2]: 84.6%
stoichiometry N [3]: 6

SV40 LT 131-627 cW393A (domain or fragment)
percent hexamer formed (ATP + Mg++) [4]: 97.9%
stoichiometry N [4]: 6

SV40 LT 131-627 tK419A (domain or fragment)
decrease in hexamer formation compared to WT (TTP + Mg++) [5]: 25.2%
percent hexamer formed (ATP + Mg++) [6]: 83.9%
stoichiometry N [6]: 6

SV40 Large Tumor Antigen (LT) 131-627, wild type (domain or fragment)
percent hexamer formed (UTP + Mg++) [7]: 69.4%
stoichiometry N [8]: 6
